The DeepSol protein solubility set

Test: soluble on expression in E. coli; label from the status in PepcDB or PDB records

Sequence	soluble on expression in E. coli
MTISNSNLLKPFITGTELPPFKEDVFSKTEEQFKKSTYGKSLFISGNENLVNISAEKIDEIKNSKNFFSNIVNIIILLIKHPDKILPILHGCPVESIEVIKNAKRTGQWSYEMTDKNGQSIEVSYIFTDTIDDKSDGKLCLKICNSCNQNDSSTHEYKIDHQQLKNHIRQLEEWALLEKFYDNNAYYSKRTKQLEKKIADAGFITRKVKAENFNVKEFKDDIASMLCEQPPMRTHQISSSGYVSADKLHKLYKTNLEDAQRDLKTTPVDIDGVSLKSITREKIAEEIAKKTAEIIAKQNAKSIEEKNIEKNKKQTNSEDNFVLKFSPEEINEMLLDYSDEEQKKLRPFFTSDHIYCLFDAFSQGLHNVARNGSPRYAGLLRQIASKSAILQDFDQQLFWRTFTGGVLHRHISVKSEPEKTDVWRFSSQFDFPHINENGELSRTVLMFEGVAESNFKDIANHSSECFSYRCYAAPLDANAKK	soluble
MSQVSIIIPTLNEAASLGRTLRQLTLLNPPAKEVIVVDGGSEDETIAIAKQNFESFRQATGVQVIFCERRGRSVQMNYGALSATGDILCFLHADTWVPDDLVAVIEKTLAETKVSCGGFISLMTGSQTTRWGISLHNYLKTYYAPLLFKPHLFFQGLRLLFGDQVMFCRRNDFWDCGGFNEELPIMEDGDLCLKLVQKGRIALVNRIVQSSDRRVARWGSWKATAIYLYIGVLWGIGVDANYLKQFYQDIRLEHHHHHH	soluble
AHHHHHHGSAEMVIPYPHLQRILEKTCELAVTKPMAERMMEIVERKLADLFEVAYENATAENSETIKMRHIPITKGFRSSMNLFRAVIEDENIKIEPILDYVLRKIPADKPLEEEVINELPIITGTLFVLIGRVIKALHPEVRNVYPEHIEEAEKVLDYTL	soluble
MYRQGTNQSVCSDADEFTPEELQEFAQAFKLFDKDGNNTMNIKELGEAMRMLGLNPTEEELLNMVNEYDVDGNGKIDFGEFCKMMKEMNKETDQELIRLAFKVFDKDGNGYITAQEFKHFMTTMGERFSEEEVDEIIREVDKDGDEQIDLDEFVNMVAPIVSDGTKTDPFLEPTASTNPPTK	not soluble
MVRPPPFEFRPARPPGTRALQLEVITNIIWENAPMADLDALRSRFAHALAGATAPGATAGAGPGSGPDPAPYADNLLARWQEPQRRYHTLAHLTAVLDRVDVLAEHADDVAVVRLAAWFHDAVYQPDRSENEERSARLAERALPEAGVPAAKTAEVARLVRLTVTHAPAGDDRDGQVLCDADLAVLASPPSAYAAYTAAVREEYHFVPNEAFREGRAAILRQLLDLPSLFHTPYGRQEWEATARHNLTGELEMLSLPDTPDVLEHHHHHH	not soluble
MSLTNDIYDKGLAIRKEVVGVDSVERSLRDATEYTAPFQALATEYCWGRVWGRDELDRRTRSIANIAMMIALNRAPELRIHIKGALTNGVPRKEIAEVILQSAVYCGIPAAGDAFRQMQSVFDEADAAAACAPASPAARKSIAVIGLGAMGYPMAAQLVRAGHDVRPYDANPAVLARFAEEFNTGVAPIASCVAGADFVVTVLPDSTVVTRVLDGDNGSGGVAARIKPGATLIDMTSGDPATTRALAARLGEAGVRMIDAPVSGGFVKARTGELAIMVGGEADTVAAAMDILQAMGTSIAHVGPIGAGHTVKALNNYISAIGWLAVIEAIHTGKRFGLDVATMNRIFNQSSGRNSSTANKVEQAVLSGTYHTGFSLALMAKDVGIAVGLARQMGVDAEVGTLAHRIIQTAFDQSAEKDLDNSRLFDILYSEGHHHHHH	not soluble
DDNERLSKVEKARQLREQVNDLFSRKFGEAIGMGFPVKVPYRKITINPGCVVVDGMPPGVSFKAPSYLEISSMRRILDSAEFIKFTVIRPFPGLVINNQLV	soluble
MNLLLFFLLSTVSVFAVVSGTVEETARDVIDALAHAPFEEWSSVFIETNDRIRAEVIPSTLFIPNSSANGSDDRHKLASYHIVPQRLEFADLLLKPSRSRLPTLLNGSSILVTNNSATSFSIDGVLIIELDIYVDSFIAIHRIAYPLDYTTYGGGSKLISKWPLFTFMLVTVVWFI	soluble
MQQLQNVIETAFERRADITPANVDTVTREAITHVIDLLDTGALRVAEKIDGQWVTHQWLKKAVLLSFRINDNQVMEGAETRYYDKVPMKFAGYDEARFQREGFRVVPPATVRKGAFIARNTVLMPSYVNIGAFVDEGTMVDTWATVGSCAQIGKNVHLSGGVGIGGVLEPLQANPTIIEDNCFVGARSEVVEGVIVEEGSVISMGVFIGQSTRIYDRETGEVHYGRVPAGSVVVSGNLPSKDGSYSLYCAVIVKKVDAKTRSKVGINELLRTID	not soluble
PIGKATDNMYSYLALLQDDPTIQIVNQAQKAYVEKVAPSIAAMAGLPILSAGAPFKAGGRKNDPTGYTEVNKGKLTFRNAADLYLYPNTLVVVKATGEQLKEWLECSAGMFKQIDPTSDKPQSLIDWEGFRTYNFDVIDGVNYEYDLTKPARYDGECKLINPESHRVVNLTYQGKPVDPKAEFLIATNNYRAYGNKFPGTGDKHIVYASPDESRQILADYIKATSEKEGSVNPNADKNWRFVPI	not soluble
MAHHHHHHMNPLYTDSISYSASDANITLPQQSMPQWANTNATASRVSAAPATAGEQAQQGNFASSLNSAGGFSVHVGSDAARSTLCSPKIATESLTAAAATTTTTKATTAVRRAPFLNPPPQQPLSGTRNRLSAPGSPAMYRSGPPIGFGGGPNYYYQYGGNTFIQDGKQQENEYYPPLPMSTPFHPVTAITKLVPLPHPKTGRGGIPAIFRFWGPIGSPAPRTPVPVPSLPNAGGVAATVFLAAIPISLVPQQMHPLSPRHPATGGSPAASSPLGGGESMGMSLVEVHHHSNGSSLGAGSPTAPAITPAPATAAAGASAVNLTVRVRRRTGGGNTAAIRVGGGASLAPLQLPSQGTSSLGASLTTLATTGPAKGPGTPFKHSPITPSNLPPAPLFAQSAPAQLLVDDSGSQRLSPTSMLPTNLVNEGSKTKGESVLRVDEDTYMQREAFRWNPYASTKWAQNRSNSTGASTSDSRGRLPVEGGSGSG	soluble
MSLADKVVNIGFSGPLSGGAAAYGKDTLSGLQMAVDTLNKSGGIKVGNDKVTFKVVSLDDRYLPNETATNVKRLTGQDIQFIFVPHAGGIQAVQPLAIRDPEFLLVAYSSEPKILAANNPLTFMLPPRYDNYAQPFVATEMKTFGKKLALVGTSSAYGKQWADLIESEWKKQGGTVGRDNAVDYNTTVDFSAAVTKALSEKPDVLFIGGPSQPTALVIKAAREQGFKGGFIVMDQAKFEQMETVIPKNYLDGSVGVLPTRDFPGTQSFVVQYQRAYKKIPTSEAGLNYMGMNVLAKAMELAGTTSDPRKVRAQLDAAAKALPQSKTVYKVFGVTPQATWTPSEGHHHHHH	soluble
MIEQIGADSKSAENKQERKLYIETYGCQMNVADSEVVASVMQMDGYNLTDNVDEADTILVNTCSVRDNAEQKVLNRLAYYHSLRKKRRASSRLVIGVLGCMAERVKEELIREHHVDVVAGPDSYLDLPNLVGAAEQGEKAINVELSTQETYKDVMPLKMGGVHINGFVSIMRGCNNFCSYCIVPYTRGRERSREIESILNEVRDLKAKNFREVTLLGQNVNSYRYEQNGRIIRFPDLLAAVAEAVPDMRIRFTSPHPKDMDDEAIAVMARYRNICNHIHLPAQSGSDKMLRVMKRGYTRRWYLDRVAAIRRAIPDCAISSDLFCGFHSETEEDFEATLSLMEEVRYDSAFMFKYSERPGTYAARHLADDVPEEVKLSRLDRMIALQNRLSEESNKRDIGKTFEVLIEGFSKRSREQLFGRTQQNKVVIFDKNGHRVGQYIYVRIKDASSATLFGEVVETPTSELEHHHHHH	soluble
MKAVDQAPKKKSHERKRKEKRVHTGNGTAKKHHKRKSRSKSKNKPKNGLSCCRKKKKKSKKSKSKVTKKQPKKKVIKPLAPVPNEQLGEVVLVKNVKLPETPQKPENDTPVKDGLKPPRTTNSVEKINLSKESFNLSNEKIASDNGTEEKMEKKNVDSPADIQDGLKGKSKQKSEEKVHQKAKDDAKRGDECNKFKISDEKLTKWKLVAQETLKDDANIAVNEFEKVSGYLPPHISKNHFVSNMDKNRFVDVICMDHSRVKLTDSSYIHANWVDLNSSKKAILTQLPLSHTASDFWQMIIDQKIKCVLLIMTDGEFNKFGGNSVFPQNQDFLKFEDRFIRVGEFKQVELGKGWNLKVLSVSNGTYKTFIHVHHYKNWPHGSIPSDVKQIWQVQSYLRKYTDGHPPVYMSMSGCGRAGTFALFETAHMSLHNEQPSLNMVKCLENVRNGRLHSVQNLSQFSVVYTLIAEHVLGNGIGKKDVEEQENSIDNILRQLTIQ	not soluble
MQARWIGNMMFHVRTDSNHDVLMDTKEEVGGKDAAPRPLELVLTGLMGCTGMDVVSILRKMKVIDQMKDFRIEIEYERTEEHPRIFTKVHLKYIFKFDGEPPKDKVEKAVQLSQEKYCSVSAILKCSSKVTYEIVYEN	not soluble
MGSDKIHHHHHHMSTKSLPMDQILNELRSYDRSEHILNHGFDLGTAWWKIELRKAAWTPSGPLAEPTESVRIDRRRLFGMASEIHTGDIDPVDFTLSVVLWGSGSSRRNNRARIQSIVDVEGRVALRQALELASTDAEASFAAFRTNGRNAFAYLGPAFFTKLMYFAGAGSKSHDAYIVDHRVLQTLSRTPAGAGLRAIHNYGPNTYRRACSALEVIASAARVSGCPELADCTGDLVERWAFDVAGAS	not soluble
DHIPGTDIDLTVPYAAEGPGPTVNTLGDVDGKPVVNVSGAEIHKTTGNLNMTTVSVRTHLTLGQALGRWLIAHDTLVPIEQIFPQGKTPEEVDEVNKAAFSTSEASATIAAMNQLHKPVDT	not soluble
CPRLIRFVMEEDYANLPPLRRFLRRAGVIPISASNRSSIRRAFNDVEEALNEGHIVCIFPEGRLTSDGEMNDFMRGIDIILRRSPVPVIPMALKGLWGSYFSRAKGRACRGFPTRFWSKLEIEAGEPVDPSSATAQTMFEKVHALRGDWR	not soluble
MRFTKVVGFLSVLGLAAVFPLTAQAEKAGTAGAGEWDKLGTYTYTYSSPTVYSTGGDFRVCLSGSTPFSVSLHLYEDDPGDNPDDYVGANYFSPGECHTFGSIGKFVDGSNNKAEFFVTDYSGKSKTVTFYDLEHHHHHH	not soluble
GPHMAVVDDLAPGMDSSPPSEDYGRQPPQDLAAEQSVLGGMLLSKDAIADVLERLRPGDFYRPAHQNVYDAILDLYGRGEPADAVTVAAELDRRGLLRRIGGAPYLHTLISTVPTAANAGYYASIVAEKALLRRLVEAGTRVVQYGYAGAEGADVAEVVDRAQAEIYDVADRRLSEDFVALEDLLQPTMDEIDAIASSGG	soluble
MSLNKAMQEVNLEDSLKFFEQAANQPAALLKVQTQWWEQQLQIWQKVVLESKIQSIMEAEKGDKRFSHEAWQQDPFFNFIKQSYLLFSKTYLDTINAIEGLDEKAKERILFFSRQMINALSPSNFIATNPELLRLTLEKNGENLIAGLEQLKEDVASSADILKIRMTNNNAFRLGEDVANTPGEVVFKNEVFELIQYKPLTEQVAVTPLLIVPPFINKYYILDLREKNSMVRWLVEQGHSVFMISWRNPGAAQAQLNFEDYVLEGVVKAVNAIESITGQEQINAAGYCIGGTVLATTIAYYAAKRMKKRIKTASFFTTLLDFSQPGEVGAYINDTIIRAIELQNNAKGYMDGRSLSVTFSLLRENSLYWNYYVDNYLKGQSPVDFDLLYWNSDSTNVAGACHNFLLRELYLENKLVQDKGVKVGGVWIDLDKIKVPSYFISTKEDHIALWQGTYRGALRTGGNKTFVLGESGHIAGIVNHPDKRKYGYWVNDTLDDSAEDWLETAQHREGSWWVHWNEWLNGFADGSKVEPYPLGNADYPVLYSAPGEYVKQVLPIQEEGHHHHHH	soluble
